Tests used:
[1] = biological target: T1, Methyl Red (MR)-AAPV-NBD-UBI29-41
T1 chain: AAPVKTGRAKRRMQYNRR

[2] = biological target: TAMRA-AAPV-NBD-PMX

B1: human neutrophil elastase (HNE) (protein)
chain: IVGGRRARPHAWPFMVSLQLRGGHFCGATLIAPNFVMSAAHCVANVNVRAVRVVLGAHNLSRREPTRQVFAVQRIFENGYDPVNLLNDIVILQLNGSATINANVQVAQLPAQGRRLGNGVQCLAMGWGLLGRNRGIASVLQELNVTVVTSLCRRSNVCTLVRGRQAGVCFGDSGSPLVCNGLIHGIASFVRGGCASGLYPDAFAPVAQFVNWIDSIIQ
For B1, the “bacterial labelling (NBD fluorescence, confocal microscopy) after cleavage of the probe in a co-culture of bacteria and neutrophils” value [1] was “These images confirm the ability of the probe to be cleaved by neutrophil derived HNE and to label bacteria”, the “bacterial labelling by NBD fluorescence (confocal microscopy) after cleavage of the probe” value [2] was “Once the probe has been cleaved by elastase, the bacteria are labelled by the probe element due to the fluorescence of NBD” and the “fluorescence of the cleaved TAMRA compound (spectrophotometer, ex 525 nm, Em 580 nm)” value [2] was “the fluorescence of the cleaved TAMRA compound increases in an elastase dependent manner and are inhibited with an elastase inhibitor such as sivelestat”.

From patent US20180120314
